This is an account of results in US20160200782A1 (MOERAE MATRIX, published 2016).

Some targets named below: MLCK(h) (human); MEK1(h) (human, UniProt Q02750 1-393, limits assumed); Met(Y1248C)(h) (human, UniProt P08581-2 974-1408, limits assumed); Lyn(h) (human, UniProt P07948 1-512, limits assumed); PKCα(h) (human, UniProt P17252 1-672).
What all share (assay): cell-based or functional assay
A further assay concerns the target T1, DRAK1(h) (human, UniProt Q9UEE5 1-414, limits assumed).
T1 sequence (looked up): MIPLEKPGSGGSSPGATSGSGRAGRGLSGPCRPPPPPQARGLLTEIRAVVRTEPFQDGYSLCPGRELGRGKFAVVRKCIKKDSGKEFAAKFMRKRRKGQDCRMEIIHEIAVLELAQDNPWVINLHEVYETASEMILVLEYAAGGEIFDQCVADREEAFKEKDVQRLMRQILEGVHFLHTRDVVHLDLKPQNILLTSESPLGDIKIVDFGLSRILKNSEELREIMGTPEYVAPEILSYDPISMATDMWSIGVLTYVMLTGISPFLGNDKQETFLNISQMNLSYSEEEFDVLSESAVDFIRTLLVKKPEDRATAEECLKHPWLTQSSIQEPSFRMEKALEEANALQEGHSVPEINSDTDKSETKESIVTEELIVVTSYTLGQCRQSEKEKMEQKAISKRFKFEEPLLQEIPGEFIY

The next assay has as its target T2, ZAP-70(h) (human, UniProt P43403 1-619, limits assumed).
T2 sequence (looked up): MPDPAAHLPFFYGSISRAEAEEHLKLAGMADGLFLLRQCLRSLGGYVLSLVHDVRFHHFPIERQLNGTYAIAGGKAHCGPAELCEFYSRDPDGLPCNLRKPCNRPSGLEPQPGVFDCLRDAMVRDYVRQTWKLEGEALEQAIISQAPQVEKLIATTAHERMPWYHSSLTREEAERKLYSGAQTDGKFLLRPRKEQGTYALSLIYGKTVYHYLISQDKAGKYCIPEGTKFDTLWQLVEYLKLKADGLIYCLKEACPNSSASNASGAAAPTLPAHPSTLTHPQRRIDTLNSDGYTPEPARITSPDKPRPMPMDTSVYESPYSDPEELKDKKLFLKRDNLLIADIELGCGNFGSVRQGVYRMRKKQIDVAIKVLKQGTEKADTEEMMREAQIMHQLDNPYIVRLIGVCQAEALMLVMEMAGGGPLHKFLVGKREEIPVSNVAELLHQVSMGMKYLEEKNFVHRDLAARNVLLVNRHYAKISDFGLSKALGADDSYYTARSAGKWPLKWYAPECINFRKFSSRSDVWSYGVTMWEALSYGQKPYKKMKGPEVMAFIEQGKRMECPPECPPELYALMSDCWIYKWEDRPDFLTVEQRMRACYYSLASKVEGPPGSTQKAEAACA

The next assay concerns the target T3, EphB1(h) (human, UniProt P54762 564-984, limits assumed).
T3 sequence (looked up): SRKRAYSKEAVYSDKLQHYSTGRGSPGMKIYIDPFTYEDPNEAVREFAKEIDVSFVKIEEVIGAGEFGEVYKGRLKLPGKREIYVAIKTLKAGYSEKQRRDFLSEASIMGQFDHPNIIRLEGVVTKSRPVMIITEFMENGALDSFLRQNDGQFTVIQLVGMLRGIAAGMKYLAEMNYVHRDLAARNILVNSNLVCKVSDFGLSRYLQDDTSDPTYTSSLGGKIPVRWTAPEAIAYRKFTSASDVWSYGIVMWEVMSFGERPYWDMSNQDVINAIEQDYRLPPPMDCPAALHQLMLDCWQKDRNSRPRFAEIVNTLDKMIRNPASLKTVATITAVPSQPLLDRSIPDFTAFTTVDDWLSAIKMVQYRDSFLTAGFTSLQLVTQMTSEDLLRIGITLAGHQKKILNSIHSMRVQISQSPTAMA

A further assay has as its target T4, MKK6(h) (human, UniProt P52564 1-334, limits assumed).
T4 sequence (looked up): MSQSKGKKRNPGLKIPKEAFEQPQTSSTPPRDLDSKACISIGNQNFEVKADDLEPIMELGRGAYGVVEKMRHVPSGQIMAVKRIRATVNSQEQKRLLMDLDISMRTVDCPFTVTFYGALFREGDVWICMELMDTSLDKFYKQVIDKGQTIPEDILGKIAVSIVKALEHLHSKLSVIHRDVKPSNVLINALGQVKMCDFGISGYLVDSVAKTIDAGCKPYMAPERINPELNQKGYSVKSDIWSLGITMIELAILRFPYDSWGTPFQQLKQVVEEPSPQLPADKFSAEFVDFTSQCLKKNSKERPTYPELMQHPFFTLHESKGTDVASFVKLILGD

A further assay concerns the target T5, EphA4(h) (human, UniProt P54764 570-986, limits assumed).
T5 sequence (looked up): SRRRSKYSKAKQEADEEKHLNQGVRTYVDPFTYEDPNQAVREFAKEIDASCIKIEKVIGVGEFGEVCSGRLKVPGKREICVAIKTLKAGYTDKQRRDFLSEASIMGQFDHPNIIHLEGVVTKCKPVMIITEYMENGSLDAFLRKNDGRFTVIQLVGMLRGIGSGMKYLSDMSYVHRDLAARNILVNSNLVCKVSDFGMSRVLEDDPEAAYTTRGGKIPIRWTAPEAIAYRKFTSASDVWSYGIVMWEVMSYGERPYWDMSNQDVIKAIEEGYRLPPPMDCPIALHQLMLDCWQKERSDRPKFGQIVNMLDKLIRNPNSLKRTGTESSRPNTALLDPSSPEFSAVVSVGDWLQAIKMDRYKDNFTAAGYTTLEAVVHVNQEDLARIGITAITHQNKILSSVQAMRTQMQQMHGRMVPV

Chain of Lyn(h) (P07948 whole entry): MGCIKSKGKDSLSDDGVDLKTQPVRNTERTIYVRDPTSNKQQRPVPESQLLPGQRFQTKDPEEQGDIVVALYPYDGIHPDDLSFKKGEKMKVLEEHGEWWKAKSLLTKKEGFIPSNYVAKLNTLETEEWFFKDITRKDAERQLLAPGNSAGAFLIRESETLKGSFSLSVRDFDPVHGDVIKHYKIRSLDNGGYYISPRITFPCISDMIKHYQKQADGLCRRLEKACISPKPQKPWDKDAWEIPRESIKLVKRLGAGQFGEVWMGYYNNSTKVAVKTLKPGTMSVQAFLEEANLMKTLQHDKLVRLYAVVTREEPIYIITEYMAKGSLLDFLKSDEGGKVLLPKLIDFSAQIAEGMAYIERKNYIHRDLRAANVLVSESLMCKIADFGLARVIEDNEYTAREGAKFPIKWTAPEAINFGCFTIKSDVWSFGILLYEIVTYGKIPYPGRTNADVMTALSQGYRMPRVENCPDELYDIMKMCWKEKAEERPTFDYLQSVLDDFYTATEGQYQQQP

B1: MMI-0400 (peptide)
peptide: KAFAKLAARLYRKALARQLGVAA
On to B1, for which the “% activity” value in the assay with MLCK(h) stood at 1%; with MEK1(h), 77%; in the assay with Met(Y1248C)(h), 36%; with Lyn(h), 3%; in the assay with DRAK1(h) it was 14%; with ZAP-70(h), 33%. Moreover, the “% activity” value came to 58% with EphB1(h), 44% in the assay with MKK6(h), 86% in the assay with PKCα(h) and 65% with EphA4(h).

B2: MMI-0300 (peptide)
peptide: FAKLAARLYRKALARQLGVAA
For B2, the “% activity” value with MLCK(h) came out at 2%; with MEK1(h), 77%; with Met(Y1248C)(h), 84%; in the assay with Lyn(h), 69%; with DRAK1(h), 14%; with ZAP-70(h), 75%. For the same molecule, the “% activity” value amounted to 44% with EphB1(h), 48% in the assay with MKK6(h), 89% in the assay with PKCα(h) and 88% with EphA4(h).
